Where no end group is shown, it is not given here. MBP = not defined here
T1: Kap104p (yeast (S. cerevisiae), UniProt P38217 1-918)
T1 construct: Kap104p, yeast homolog of Kapβ2; gene a gift from J. Aitchison, subcloned into pGEX-Tev; also called yeast Karyopherin β2 homolog; source: E. coli Rosetta(DE3)pLysS, purified (glutathione sepharose, TEV cleavage, anion exchange, gel filtration)
T1 sequence (looked up): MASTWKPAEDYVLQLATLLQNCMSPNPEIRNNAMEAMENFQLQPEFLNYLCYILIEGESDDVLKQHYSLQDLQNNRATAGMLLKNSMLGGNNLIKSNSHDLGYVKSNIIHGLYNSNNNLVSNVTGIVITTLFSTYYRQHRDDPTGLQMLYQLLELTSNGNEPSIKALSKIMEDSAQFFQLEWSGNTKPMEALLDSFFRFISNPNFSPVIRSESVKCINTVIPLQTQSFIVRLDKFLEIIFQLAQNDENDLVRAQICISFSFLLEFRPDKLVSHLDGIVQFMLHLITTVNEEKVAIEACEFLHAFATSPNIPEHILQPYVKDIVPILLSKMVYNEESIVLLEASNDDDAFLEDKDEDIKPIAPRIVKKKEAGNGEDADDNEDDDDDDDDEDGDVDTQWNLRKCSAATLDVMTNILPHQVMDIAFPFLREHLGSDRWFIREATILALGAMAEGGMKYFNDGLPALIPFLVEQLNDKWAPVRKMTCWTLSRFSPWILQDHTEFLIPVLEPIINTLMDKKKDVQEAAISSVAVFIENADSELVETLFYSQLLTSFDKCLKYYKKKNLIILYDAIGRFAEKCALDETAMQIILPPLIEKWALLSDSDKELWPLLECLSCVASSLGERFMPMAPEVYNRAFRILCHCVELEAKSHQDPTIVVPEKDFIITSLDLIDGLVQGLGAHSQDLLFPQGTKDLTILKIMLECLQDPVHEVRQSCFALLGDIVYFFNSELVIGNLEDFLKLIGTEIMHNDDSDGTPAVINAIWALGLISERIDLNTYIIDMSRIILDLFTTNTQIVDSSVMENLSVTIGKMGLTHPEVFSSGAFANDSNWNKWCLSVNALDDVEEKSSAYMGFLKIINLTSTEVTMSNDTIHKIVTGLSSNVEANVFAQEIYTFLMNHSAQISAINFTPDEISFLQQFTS

B1: MBP–Nab2p NLS R235H (domain or fragment, S. cerevisiae, UniProt P32505 201-251, looked up)
chain: DNSQRFTQRGGGAVGKNRRGGRGGNRGGRNNNSTHFNPLAKALGMAGESNM
notes: Nab2p NLS, residues 201-251; also called R235 to histidine; source: E. coli BL21(DE3), purified (amylose resin, cation exchange)
B2: MBP–Nab2p NLS R235A (domain or fragment, S. cerevisiae, UniProt P32505 201-251, looked up)
chain: DNSQRFTQRGGGAVGKNRRGGRGGNRGGRNNNSTAFNPLAKALGMAGESNM
notes: Nab2p NLS, residues 201-251; source: E. coli BL21(DE3), purified (amylose resin, cation exchange)
B3: MBP–Nab2p NLS R222A, 238PL239/AA (domain or fragment, S. cerevisiae, UniProt P32505 201-251, looked up)
chain: DNSQRFTQRGGGAVGKNRRGGAGGNRGGRNNNSTRFNAAAKALGMAGESNM
notes: as for B2
B4: MBP–Nab2p NLS F236A (domain or fragment, S. cerevisiae, UniProt P32505 201-251, looked up)
chain: DNSQRFTQRGGGAVGKNRRGGRGGNRGGRNNNSTRANPLAKALGMAGESNM
notes: as for B2
B5: MBP–Nab2p NLS L239E (domain or fragment, S. cerevisiae, UniProt P32505 201-251, looked up)
chain: DNSQRFTQRGGGAVGKNRRGGRGGNRGGRNNNSTRFNPEAKALGMAGESNM
notes: as for B2
B6: MBP–Nab2p NLS L239D (domain or fragment, S. cerevisiae, UniProt P32505 201-251, looked up)
chain: DNSQRFTQRGGGAVGKNRRGGRGGNRGGRNNNSTRFNPDAKALGMAGESNM
notes: as for B2
B7: MBP–Nab2p NLS L239R (domain or fragment, S. cerevisiae, UniProt P32505 201-251, looked up)
chain: DNSQRFTQRGGGAVGKNRRGGRGGNRGGRNNNSTRFNPRAKALGMAGESNM
notes: Nab2p NLS, residues 201-251; also called L239 to R; source: E. coli BL21(DE3), purified (amylose resin, cation exchange)
B8: MBP–Nab2p NLS 238PL239/AA (domain or fragment, S. cerevisiae, UniProt P32505 201-251, looked up)
chain: DNSQRFTQRGGGAVGKNRRGGRGGNRGGRNNNSTRFNAAAKALGMAGESNM
notes: as for B2
B9: MBP–Nab2p NLS L239F (domain or fragment, S. cerevisiae, UniProt P32505 201-251, looked up)
chain: DNSQRFTQRGGGAVGKNRRGGRGGNRGGRNNNSTRFNPFAKALGMAGESNM
notes: Nab2p NLS, residues 201-251; also called L239 to F; source: E. coli BL21(DE3), purified (amylose resin, cation exchange)
B10: MBP–Nab2p NLS L239T (domain or fragment, S. cerevisiae, UniProt P32505 201-251, looked up)
chain: DNSQRFTQRGGGAVGKNRRGGRGGNRGGRNNNSTRFNPTAKALGMAGESNM
notes: Nab2p NLS, residues 201-251; also called L239 to T; source: E. coli BL21(DE3), purified (amylose resin, cation exchange)
B11: MBP–Nab2p NLS L239G (domain or fragment, S. cerevisiae, UniProt P32505 201-251, looked up)
chain: DNSQRFTQRGGGAVGKNRRGGRGGNRGGRNNNSTRFNPGAKALGMAGESNM
notes: as for B2
B12: MBP–Nab2p NLS 238PL239/PY (domain or fragment, S. cerevisiae, UniProt P32505 201-251, looked up)
chain: {MBP}-DNSQRFTQRGGGAVGKNRRGGRGGNRGGRNNNSTRFNPYAKALGMAGESNM
modifications: reading uncertain
notes: Nab2p NLS, residues 201-251; also called L239Y; source: E. coli BL21(DE3), purified (amylose resin, cation exchange)
B13: MBP–Nab2p NLS L239Q (domain or fragment, S. cerevisiae, UniProt P32505 201-251, looked up)
chain: DNSQRFTQRGGGAVGKNRRGGRGGNRGGRNNNSTRFNPQAKALGMAGESNM
notes: Nab2p NLS, residues 201-251; also called L239 to Q; source: E. coli BL21(DE3), purified (amylose resin, cation exchange)
B14: MBP–Nab2p NLS R226A (domain or fragment, S. cerevisiae, UniProt P32505 201-251, looked up)
chain: DNSQRFTQRGGGAVGKNRRGGRGGNAGGRNNNSTRFNPLAKALGMAGESNM
notes: as for B2
B15: MBP–Nab2p NLS L239I (domain or fragment, S. cerevisiae, UniProt P32505 201-251, looked up)
chain: DNSQRFTQRGGGAVGKNRRGGRGGNRGGRNNNSTRFNPIAKALGMAGESNM
notes: as for B2
B16: MBP–Nab2p NLS L239S (domain or fragment, S. cerevisiae, UniProt P32505 201-251, looked up)
chain: DNSQRFTQRGGGAVGKNRRGGRGGNRGGRNNNSTRFNPSAKALGMAGESNM
notes: Nab2p NLS, residues 201-251; also called L239 to S; source: E. coli BL21(DE3), purified (amylose resin, cation exchange)
B17: MBP–Nab2p NLS L239V (domain or fragment, S. cerevisiae, UniProt P32505 201-251, looked up)
chain: DNSQRFTQRGGGAVGKNRRGGRGGNRGGRNNNSTRFNPVAKALGMAGESNM
notes: Nab2p NLS, residues 201-251; also called L239 to V; source: E. coli BL21(DE3), purified (amylose resin, cation exchange)
B18: MBP–Nab2p NLS R218A (domain or fragment, S. cerevisiae, UniProt P32505 201-251, looked up)
chain: DNSQRFTQRGGGAVGKNARGGRGGNRGGRNNNSTRFNPLAKALGMAGESNM
notes: as for B2
B19: MBP–Nab2p NLS R218, R219, R222, R226, R229/AAAAA (domain or fragment, S. cerevisiae, UniProt P32505 201-251, looked up)
chain: DNSQRFTQRGGGAVGKNAAGGAGGNAGGANNNSTRFNPLAKALGMAGESNM
notes: Nab2p NLS, residues 201-251; also called pentamutant; source: E. coli BL21(DE3), purified (amylose resin, cation exchange)

These binders were tested against T1, Kap104p (assay: ITC; 90–350 μM MBP-NLS titrated into 9–35 μM Kap104p in the cell; 20 °C; 20 mM Tris pH 7.5, 100 mM NaCl, 2 mM β-mercaptoethanol, 10% glycerol; 35 injections of 8 μl; single-site model). Conditions: both partners purified.

Q: How did the “KD,mutant/KD,wild type” value turn out when B1 was run?
A: Its value is 1.7.

Q: B2 was tested. Which “KD,mutant/KD,wild type” value did it give?
A: The value was 5.5.

Q: With B3 as the binder, how does the Kd read?
A: Its Kd is 411 nM.

Q: B4 was tested. Which “KD,mutant/KD,wild type” value did it give?
A: Its value is 8.

Q: How did the “fold decrease in affinity against wild type” value turn out when B5 was run?
A: The value was 7 fold.

Q: For B6, which “fold decrease in affinity against wild type” value is on record?
A: The value was 11 fold.

Q: Does B7 bind?
A: Result: binds

Q: With B8 as the binder, how does the Kd read?
A: The Kd was 376 nM.

Q: Does B9 bind?
A: Result: binds

Q: Does B10 bind?
A: Result: binds

Q: Does B11 bind?
A: Result: binds

Q: Which Kd does the source give for B12 here?
A: The Kd was 13 nM.

Q: Does B13 bind?
A: Result: binds

Q: Which “KD,mutant/KD,wild type” value does the source give for B14 here?
A: Its value is roughly 1.

Q: Does B15 bind?
A: Result: binds

Q: Does B16 bind?
A: Result: binds

Q: Does B17 bind?
A: Result: binds

Q: With B18 as the binder, how does the “KD,mutant/KD,wild type” value read?
A: Its value is roughly 1.

Q: For B19, which Kd is on record?
A: The Kd was 2250 nM.
